B1: DVD643 (bispecific antibody, human IgG1, kappa)
heavy: not shown
light: DIQMTQSPSSVSASVGDRVTITCRASQGISSWLAWYQQKPGKAPNLLIYEASSLQSGVPSRFGGSGSGTDFTLTISSLQPEDFATYYCQQANGFPWTFGQGTKVEIKRTVAAPSVFIFPPDIQMTQSPSSLSASVGDRVTITCRASQDVSTAVAWYQQKPGKAPKLLIYSASFLYSGVPSRFSGSGSGTDFTLTISSLQPEDFATYYCQQSYTTPPTFGQGTKVEIKRTVAAPSVFIFPPSDEQLKSGTASVVCLLNNFYPREAKVQWKVDNALQSGNSQESVTEQDSKDSTYSLSSTLTLSKADYEKHKVYACEVTHQGLSSPVTKSFNRGEC
notes: DVD-Ig; HC linker long, LC linker long; vectors V1/V2
B2: DVD651 (bispecific antibody, human IgG1, kappa)
heavy: not shown
light: DIQMTQSPSSVSASVGDRVTITCRASQGISSWLAWYQQKPGKAPNLLIYEASSLQSGVPSRFGGSGSGTDFTLTISSLQPEDFATYYCQQANGFPWTFGQGTKVEIKRTVAAPDIQMTQSPSSLSASVGDRVTITCRASQVIRRSLAWYQQKPGKAPKLLIYAASNLASGVPSRFSGSGSGTDFTLTISSLQPEDFATYYCQQSNTSPLTFGQGTKVEIKRTVAAPSVFIFPPSDEQLKSGTASVVCLLNNFYPREAKVQWKVDNALQSGNSQESVTEQDSKDSTYSLSSTLTLSKADYEKHKVYACEVTHQGLSSPVTKSFNRGEC
notes: DVD-Ig; N-term VD AB012 (HGF), C-term VD AB071 (VEGF); HC linker long, LC linker short; vectors V1/V2
B3: DVD678 (bispecific antibody, human IgG1, kappa)
heavy: not shown
light: DIQMTQSPSSLSASVGDRVTITCSASQDISNYLNWYQQKPGKAPKVLIYFTSSLHSGVPSRFSGSGSGTDFTLTISSLQPEDFATYYCQQYSTVPWTFGQGTKVEIKRTVAAPSVFIFPPDIQMTQSPSSLSASVGDRVTITCKASENVVSYVSWYQQKPGKAPKLLIYGASNRNTGVPSRFSGSGSGTDFTLTISSLQPEDFATYYCGQSYNYPYTFGQGTKLEIKRTVAAPSVFIFPPSDEQLKSGTASVVCLLNNFYPREAKVQWKVDNALQSGNSQESVTEQDSKDSTYSLSSTLTLSKADYEKHKVYACEVTHQGLSSPVTKSFNRGEC
notes: DVD-Ig; HC linker short, LC linker long; vectors V1/V2
B4: DVD680 (bispecific antibody, human IgG1, kappa)
heavy: not shown
light: DIQMTQSPSSLSASVGDRVTITCRASQDVSTAVAWYQQKPGKAPKLLIYSASFLYSGVPSRFSGSGSGTDFTLTISSLQPEDFATYYCQQSYTTPPTFGQGTKVEIKRTVAAPSVFIFPPDIQMTQSPSSLSASVGDRVTITCKASENVVSYVSWYQQKPGKAPKLLIYGASNRNTGVPSRFSGSGSGTDFTLTISSLQPEDFATYYCGQSYNYPYTFGQGTKLEIKRTVAAPSVFIFPPSDEQLKSGTASVVCLLNNFYPREAKVQWKVDNALQSGNSQESVTEQDSKDSTYSLSSTLTLSKADYEKHKVYACEVTHQGLSSPVTKSFNRGEC
notes: as for B3
B5: DVD663 (bispecific antibody, human IgG1, kappa)
heavy: not shown
light: DIQMTQSPSSLSASVGDRVTITCKASENVVSYVSWYQQKPGKAPKLLIYGASNRNTGVPSRFSGSGSGTDFTLTISSLQPEDFATYYCGQSYNYPYTFGQGTKLEIKRTVAAPDIQMTQSPSSLSASVGDRVTITCRASQVIRRSLAWYQQKPGKAPKLLIYAASNLASGVPSRFSGSGSGTDFTLTISSLQPEDFATYYCQQSNTSPLTFGQGTKVEIKRTVAAPSVFIFPPSDEQLKSGTASVVCLLNNFYPREAKVQWKVDNALQSGNSQESVTEQDSKDSTYSLSSTLTLSKADYEKHKVYACEVTHQGLSSPVTKSFNRGEC
notes: DVD-Ig; N-term VD AB079 (HGF), C-term VD AB071 (VEGF); HC linker short, LC linker short; vectors V1/V2
B6: DVD645 (bispecific antibody, human IgG1, kappa)
heavy: not shown
light: DIQMTQSPSSVSASVGDRVTITCRASQGISSWLAWYQQKPGKAPNLLIYEASSLQSGVPSRFGGSGSGTDFTLTISSLQPEDFATYYCQQANGFPWTFGQGTKVEIKRTVAAPSVFIFPPDIQMTQSPSSLSASVGDRVTITCRASQVIRRSLAWYQQKPGKAPKLLIYAASNLASGVPSRFSGSGSGTDFTLTISSLQPEDFATYYCQQSNTSPLTFGQGTKVEIKRTVAAPSVFIFPPSDEQLKSGTASVVCLLNNFYPREAKVQWKVDNALQSGNSQESVTEQDSKDSTYSLSSTLTLSKADYEKHKVYACEVTHQGLSSPVTKSFNRGEC
notes: DVD-Ig; N-term VD AB012 (HGF), C-term VD AB071 (VEGF); HC linker long, LC linker long; vectors V1/V2
B7: DVD682 (bispecific antibody, human IgG1, kappa)
heavy: not shown
light: DIQMTQSPSSLSASVGDRVTITCRASQVIRRSLAWYQQKPGKAPKLLIYAASNLASGVPSRFSGSGSGTDFTLTISSLQPEDFATYYCQQSNTSPLTFGQGTKVEIKRTVAAPSVFIFPPDIQMTQSPSSLSASVGDRVTITCKASENVVSYVSWYQQKPGKAPKLLIYGASNRNTGVPSRFSGSGSGTDFTLTISSLQPEDFATYYCGQSYNYPYTFGQGTKLEIKRTVAAPSVFIFPPSDEQLKSGTASVVCLLNNFYPREAKVQWKVDNALQSGNSQESVTEQDSKDSTYSLSSTLTLSKADYEKHKVYACEVTHQGLSSPVTKSFNRGEC
notes: DVD-Ig; N-term VD AB071 (VEGF), C-term VD AB079 (HGF); HC linker short, LC linker long; vectors V1/V2
B8: DVD712 (bispecific antibody, human IgG1, kappa)
heavy: not shown
light: DIQMTQSPSSLSASVGDRVTITCRASQVIRRSLAWYQQKPGKAPKLLIYAASNLASGVPSRFSGSGSGTDFTLTISSLQPEDFATYYCQQSNTSPLTFGQGTKVEIKRTVAAPDIQMTQSPSSVSASVGDRVTITCRASQGISSWLAWYQQKPGKAPNLLIYEASSLQSGVPSRFGGSGSGTDFTLTISSLQPEDFATYYCQQANGFPWTFGQGTKVEIKRTVAAPSVFIFPPSDEQLKSGTASVVCLLNNFYPREAKVQWKVDNALQSGNSQESVTEQDSKDSTYSLSSTLTLSKADYEKHKVYACEVTHQGLSSPVTKSFNRGEC
notes: DVD-Ig; N-term VD AB071 (VEGF), C-term VD AB012 (HGF); HC linker short, LC linker short; vectors V1/V2
B9: DVD710 (bispecific antibody, human IgG1, kappa)
heavy: not shown
light: DIQMTQSPSSLSASVGDRVTITCRASQDVSTAVAWYQQKPGKAPKLLIYSASFLYSGVPSRFSGSGSGTDFTLTISSLQPEDFATYYCQQSYTTPPTFGQGTKVEIKRTVAAPDIQMTQSPSSVSASVGDRVTITCRASQGISSWLAWYQQKPGKAPNLLIYEASSLQSGVPSRFGGSGSGTDFTLTISSLQPEDFATYYCQQANGFPWTFGQGTKVEIKRTVAAPSVFIFPPSDEQLKSGTASVVCLLNNFYPREAKVQWKVDNALQSGNSQESVTEQDSKDSTYSLSSTLTLSKADYEKHKVYACEVTHQGLSSPVTKSFNRGEC
notes: DVD-Ig; HC linker short, LC linker short; vectors V1/V2
B10: DVD649 (bispecific antibody, human IgG1, kappa)
heavy: not shown
light: DIQMTQSPSSVSASVGDRVTITCRASQGISSWLAWYQQKPGKAPNLLIYEASSLQSGVPSRFGGSGSGTDFTLTISSLQPEDFATYYCQQANGFPWTFGQGTKVEIKRTVAAPDIQMTQSPSSLSASVGDRVTITCRASQDVSTAVAWYQQKPGKAPKLLIYSASFLYSGVPSRFSGSGSGTDFTLTISSLQPEDFATYYCQQSYTTPPTFGQGTKVEIKRTVAAPSVFIFPPSDEQLKSGTASVVCLLNNFYPREAKVQWKVDNALQSGNSQESVTEQDSKDSTYSLSSTLTLSKADYEKHKVYACEVTHQGLSSPVTKSFNRGEC
notes: DVD-Ig; HC linker long, LC linker short; vectors V1/V2
B11: DVD676 (bispecific antibody, human IgG1, kappa)
heavy: not shown
light: DIQMTQSPSSLSASVGDRVTITCRASQVIRRSLAWYQQKPGKAPKLLIYAASNLASGVPSRFSGSGSGTDFTLTISSLQPEDFATYYCQQSNTSPLTFGQGTKVEIKRTVAAPDIQMTQSPSSLSASVGDRVTITCKASENVVSYVSWYQQKPGKAPKLLIYGASNRNTGVPSRFSGSGSGTDFTLTISSLQPEDFATYYCGQSYNYPYTFGQGTKLEIKRTVAAPSVFIFPPSDEQLKSGTASVVCLLNNFYPREAKVQWKVDNALQSGNSQESVTEQDSKDSTYSLSSTLTLSKADYEKHKVYACEVTHQGLSSPVTKSFNRGEC
notes: DVD-Ig; N-term VD AB071 (VEGF), C-term VD AB079 (HGF); HC linker long, LC linker short; vectors V1/V2

Tests used:
VEGF 1-165 aa [1] = biological target: T1, VEGF 1-165 aa (UniProt P15692 27-191); assay: direct bind ELISA (C-term VD)
T1 construct: Bought antigen coated on the ELISA plate
T1 sequence (P15692 other isoform, or with tags, fused parts or gaps limits assumed): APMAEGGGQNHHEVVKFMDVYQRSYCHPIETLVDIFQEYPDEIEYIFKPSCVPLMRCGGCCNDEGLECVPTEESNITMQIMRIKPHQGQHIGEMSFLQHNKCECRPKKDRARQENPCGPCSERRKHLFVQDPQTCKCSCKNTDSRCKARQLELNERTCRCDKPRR
Protocol: (§1) Enzyme Linked Immunosorbent Assays to screen for antibodies that bind a desired target antigen were performed as follows. […] Plates were washed four times with PBS containing 0.02% Tween 20. Plates were blocked by the addition of 300 μL/well blocking solution (non-fat dry milk powder, various retail suppliers, diluted to 2% in PBS) for ½ hour at room temperature. Plates were washed four times after blocking with PBS containing 0.02% Tween 20.
(§2) Alternatively, one hundred microliters per well of 10 μg/ml of Histidine (His) tagged desired target antigen (R&D Systems, Minneapolis, Minn.) was added to ELISA plates coated with monoclonal mouse anti-polyHistidine antibody as described above and incubated for 1 hour at room temperature. Wells were washed four times with PBS containing 0.02% Tween 20.
(§3) Plates were washed 4 times with PBS containing 0.02% Tween 20.

HGF-His tag [2] = biological target: T2, HGF-His tag (UniProt P14210 32-728); assay: direct bind ELISA (N-term VD);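 further: ELISA screen of antibodies for binding to plate-immobilized target antigen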
T2 construct: Bought antigen coated on the ELISA plate; not shown: His tag
T2 sequence (P14210 32-728 limits assumed): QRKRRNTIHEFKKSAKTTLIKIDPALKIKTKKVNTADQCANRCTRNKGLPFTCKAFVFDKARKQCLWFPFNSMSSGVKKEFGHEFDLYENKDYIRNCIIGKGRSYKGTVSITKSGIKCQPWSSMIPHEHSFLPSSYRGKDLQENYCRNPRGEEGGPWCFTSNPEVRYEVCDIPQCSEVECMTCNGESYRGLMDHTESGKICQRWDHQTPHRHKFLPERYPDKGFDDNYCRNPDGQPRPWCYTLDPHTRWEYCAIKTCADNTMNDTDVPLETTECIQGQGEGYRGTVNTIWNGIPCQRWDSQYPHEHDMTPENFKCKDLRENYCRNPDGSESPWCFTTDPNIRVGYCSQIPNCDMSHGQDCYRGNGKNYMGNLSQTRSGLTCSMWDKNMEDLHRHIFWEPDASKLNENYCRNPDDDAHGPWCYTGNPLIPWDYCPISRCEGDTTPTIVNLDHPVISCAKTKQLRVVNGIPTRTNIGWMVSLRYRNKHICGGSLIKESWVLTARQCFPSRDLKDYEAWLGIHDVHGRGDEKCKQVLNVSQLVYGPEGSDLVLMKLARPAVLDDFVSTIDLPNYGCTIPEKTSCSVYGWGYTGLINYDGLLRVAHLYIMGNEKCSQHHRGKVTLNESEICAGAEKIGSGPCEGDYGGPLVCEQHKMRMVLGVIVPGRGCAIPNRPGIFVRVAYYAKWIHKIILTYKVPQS

HGF-His tag [3] = biological target: T2, HGF-His tag; assay: direct bind ELISA (C-term VD)
Protocol: as §1, §2, §3

VEGF 1-165 aa [4] = biological target: T1, VEGF 1-165 aa; assay: direct bind ELISA (N-term VD);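 further: ELISA screen of antibodies for binding to plate-immobilized target antigen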
Protocol: as §1, §2, §3

Row | Binder | EC50 (VEGF 1-165 aa [1]) [nM] | EC50 (HGF-His tag [2]) [nM] | EC50 (HGF-His tag [3]) [nM] | EC50 (VEGF 1-165 aa [4]) [nM]
1 | B1 | 175 | 0.26 | – | –
2 | B2 | 341 | 0.11 | – | –
3 | B3 | – | – | 4.69 | 0.65
4 | B4 | – | – | 5.17 | 12.6
5 | B5 | – | 0.26 | – | –
6 | B6 | – | 0.17 | – | –
7 | B7 | – | – | 6.55 | 53.1
8 | B8 | – | – | 37.2 | 64.2
9 | B9 | – | – | 17.8 | 2.43
10 | B10 | 186 | 0.15 | – | –
11 | B11 | – | – | 35.8 | 130

Source: patent publication US20100260668A1 (published 2010)
